B1: PABPC1 RRM3 including the RRM3-4 linker (residues 191-289) (domain or fragment, human, UniProt P11940 191-289, looked up)
chain: TNVYIKNFGEDMDDERLKDLFGKFGPALSVKVMTDESGKSKGFGFVSFERHEDAQKAVDEMNGKELNGKQIYVGRAQKKVERQTELKRKFEQMKQDRIT
B2: PABPC1 RRM2/3 (residues 100-289) (domain or fragment, human)
chain: GPLGSNIFIKNLDKSIDNKALYDTFSAFGNILSCKVVCDENGSKGYGFVHFETQEAAERAIEKMNGMLLNDRKVFVGRFKSRKEREAELGARAKEFTNVYIKNFGEDMDDERLKDLFGKFGPALSVKVMTDESGKSKGFGFVSFERHEDAQKAVDEMNGKELNGKQIYVGRAQKKVERQTELKRKFEQMKQDRIT
B3: PABPC1 RRM2 including the RRM2-3 linker (residues 100-190) (domain or fragment)
chain: not shown
B4: PABP-interacting protein 2A (Paip2A), full length (natural protein, human, UniProt Q9BPZ3 1-127, looked up)
chain: MKDPSRSSTSPSIINEDVIINGHSHEDDNPFAEYMWMENEEEFNRQIEEELWEEEFIERCFQEMLEEEEEHEWFIPARDLPQTMDQIQDQFNDLVISDGSSLEDLVVKSNLNPNAKEFVPGVKYGNI
B5: Paip2A(25-83) (residues 25-83 of PABP-interacting protein 2A) (domain or fragment, human, UniProt Q9BPZ3 25-83, looked up)
chain: HEDDNPFAEYMWMENEEEFNRQIEEELWEEEFIERCFQEMLEEEEEHEWFIPARDLPQT

Columns and labels:
[1] = molecular target: B5; assay: ITC
[2] = molecular target: B2; assay: NMR titration
[3] = molecular target: PABPC1 RRM1/2/3/4 (residues 1-370) (human, UniProt P11940 1-370); assay: SPR
[4] = molecular target: poly(A)-binding protein C1 (PABPC1), full length (human, UniProt P11940 1-636); assay: SPR
[5] = molecular target: B1; assay: ITC
[6] = molecular target: B3; assay: ITC
[7] = molecular target: B2; assay: ITC

Row | Binder | dH [1] [kcal/mol] | stoichiometry N [1] | also measured
1 | B1 | -43 | 0.87 | –
2 | B2 | -55 | 0.83 | –
3 | B3 | -28.7 | 0.87 | –
4 | B4 | – | – | binding result [2]: binds; binding result [3]: binds; binding result [4]: binds
5 | B5 | – | – | Kd [5]: 1300 nM; Kd [6]: 4000 nM; Kd [7]: 1.9 nM

From publication PMC9019252 (The Journal of Biological Chemistry, 2022)
